Measured values from patent US20190144529A1 (UCB, published 2019).

B1: CA645 gL4gH27 Fab (Fab, V domains shown)
VH: EVQLLESGGGLVQPGGSLRLSCAVSGIDLSNYAINWVRQAPGKGLEWIGIIWGSGTTFYATWAKGRFTISRDNSKNTVYLQMNSLRAEDTAVYYCARTVPGYSTAPYFDLWGQGTLVTVSS
VL: DIQMTQSPSSVSASVGDRVTITCQSSPSVWSNFLSWYQQKPGKAPKLLIYEASKLTSGVPSRFSGSGSGTDFTLTISSLQPEDFATYYCGGGYSSISDTTFGGGTKVEIK
notes: Fab: human gamma1 CH1, human kappa (Km3); Kabat numbering
B2: CA645 gL4gH28 Fab (Fab, V domains shown)
VH: EVQLLESGGGLVQPGGSLRLSCAVSGIDLSNYAINWVRQAPGKGLEWIGIIWVSGTTFYATWAKGRFTISRDNSKNTVYLQMNSLRAEDTAVYYCARTVPGYSTAPYFDLWGQGTLVTVSS
VL: DIQMTQSPSSVSASVGDRVTITCQSSPSVWSNFLSWYQQKPGKAPKLLIYEASKLTSGVPSRFSGSGSGTDFTLTISSLQPEDFATYYCGGGYSSISDTTFGGGTKVEIK
notes: as for B1
B3: CA645 gL4gH29 Fab (Fab, V domains shown)
VH: EVQLLESGGGLVQPGGSLRLSCAVSGIDLSNYAINWVRQAPGKGLEWIGIIWSSGTTFYATWAKGRFTISRDNSKNTVYLQMNSLRAEDTAVYYCARTVPGYSTAPYFDLWGQGTLVTVSS
VL: DIQMTQSPSSVSASVGDRVTITCQSSPSVWSNFLSWYQQKPGKAPKLLIYEASKLTSGVPSRFSGSGSGTDFTLTISSLQPEDFATYYCGGGYSSISDTTFGGGTKVEIK
notes: as for B1
B4: CA645 gL4gH30 Fab (Fab, V domains shown)
VH: EVQLLESGGGLVQPGGSLRLSCAVSGIDLSNYAINWVRQAPGKGLEWIGIIWTSGTTFYATWAKGRFTISRDNSKNTVYLQMNSLRAEDTAVYYCARTVPGYSTAPYFDLWGQGTLVTVSS
VL: DIQMTQSPSSVSASVGDRVTITCQSSPSVWSNFLSWYQQKPGKAPKLLIYEASKLTSGVPSRFSGSGSGTDFTLTISSLQPEDFATYYCGGGYSSISDTTFGGGTKVEIK
notes: as for B1
B5: CA645 gL4gH38 Fab (Fab, V domains shown)
VH: EVQLLESGGGLVQPGGSLRLSCAVSGIDLSNYAINWVRQAPGKGLEWIGIIWASGTTYYATWAKGRFTISRDNSKNTVYLQMNSLRAEDTAVYYCARTVPGYSTAPYFDLWGQGTLVTVSS
VL: DIQMTQSPSSVSASVGDRVTITCQSSPSVWSNFLSWYQQKPGKAPKLLIYEASKLTSGVPSRFSGSGSGTDFTLTISSLQPEDFATYYCGGGYSSISDTTFGGGTKVEIK
notes: as for B1
B6: CA645 gL4gH39 Fab (Fab, V domains shown)
VH: EVQLLESGGGLVQPGGSLRLSCAVSGIDLSNYAINWVRQAPGKGLEWIGIIWASGTTFYATWAKGRFTISRDNSKNTVYLQMNSLRAEDTAVYYCARTVPIYSTAPYFDLWGQGTLVTVSS
VL: DIQMTQSPSSVSASVGDRVTITCQSSPSVWSNFLSWYQQKPGKAPKLLIYEASKLTSGVPSRFSGSGSGTDFTLTISSLQPEDFATYYCGGGYSSISDTTFGGGTKVEIK
notes: as for B1
B7: CA645 gL4gH40 Fab (Fab, V domains shown)
VH: EVQLLESGGGLVQPGGSLRLSCAVSGIDLSNYAINWVRQAPGKGLEWIGIIWASGTTFYATWAKGRFTISRDNSKNTVYLQMNSLRAEDTAVYYCARTVPTYSTAPYFDLWGQGTLVTVSS
VL: DIQMTQSPSSVSASVGDRVTITCQSSPSVWSNFLSWYQQKPGKAPKLLIYEASKLTSGVPSRFSGSGSGTDFTLTISSLQPEDFATYYCGGGYSSISDTTFGGGTKVEIK
notes: as for B1
B8: CA645 gL4gH41 Fab (Fab, V domains shown)
VH: EVQLLESGGGLVQPGGSLRLSCAVSGIDLSNYAINWVRQAPGKGLEWIGIIWASGTTFYATWAKGRFTISRDNSKNTVYLQMNSLRAEDTAVYYCARTVPDYSTAPYFDLWGQGTLVTVSS
VL: DIQMTQSPSSVSASVGDRVTITCQSSPSVWSNFLSWYQQKPGKAPKLLIYEASKLTSGVPSRFSGSGSGTDFTLTISSLQPEDFATYYCGGGYSSISDTTFGGGTKVEIK
notes: as for B1
B9: CA645 gL4gH42 Fab (Fab, V domains shown)
VH: EVQLLESGGGLVQPGGSLRLSCAVSGIDLSNYAINWVRQAPGKGLEWIGIIWASGTTFYATWAKGRFTISRDNSKNTVYLQMNSLRAEDTAVYYCARTVPQYSTAPYFDLWGQGTLVTVSS
VL: DIQMTQSPSSVSASVGDRVTITCQSSPSVWSNFLSWYQQKPGKAPKLLIYEASKLTSGVPSRFSGSGSGTDFTLTISSLQPEDFATYYCGGGYSSISDTTFGGGTKVEIK
notes: as for B1
B10: CA645 gL4gH43 Fab (Fab, V domains shown)
VH: EVQLLESGGGLVQPGGSLRLSCAVSGIDLSNYAINWVRQAPGKGLEWIGIIWASGTTFYATWAKGRFTISRDNSKNTVYLQMNSLRAEDTAVYYCARTVPEYSTAPYFDLWGQGTLVTVSS
VL: DIQMTQSPSSVSASVGDRVTITCQSSPSVWSNFLSWYQQKPGKAPKLLIYEASKLTSGVPSRFSGSGSGTDFTLTISSLQPEDFATYYCGGGYSSISDTTFGGGTKVEIK
notes: as for B1
B11: CA645 gL4gH44 Fab (Fab, V domains shown)
VH: EVQLLESGGGLVQPGGSLRLSCAVSGIDLSNYAINWVRQAPGKGLEWIGIIWASGTTFYATWAKGRFTISRDNSKNTVYLQMNSLRAEDTAVYYCARTVPLYSTAPYFDLWGQGTLVTVSS
VL: DIQMTQSPSSVSASVGDRVTITCQSSPSVWSNFLSWYQQKPGKAPKLLIYEASKLTSGVPSRFSGSGSGTDFTLTISSLQPEDFATYYCGGGYSSISDTTFGGGTKVEIK
notes: as for B1
B12: CA645 gL4gH45 Fab (Fab, V domains shown)
VH: EVQLLESGGGLVQPGGSLRLSCAVSGIDLSNYAINWVRQAPGKGLEWIGIIWASGTTFYATWAKGRFTISRDNSKNTVYLQMNSLRAEDTAVYYCARTVPVYSTAPYFDLWGQGTLVTVSS
VL: DIQMTQSPSSVSASVGDRVTITCQSSPSVWSNFLSWYQQKPGKAPKLLIYEASKLTSGVPSRFSGSGSGTDFTLTISSLQPEDFATYYCGGGYSSISDTTFGGGTKVEIK
notes: as for B1
B13: CA645 gL10gH5 Fab (Fab, V domains shown)
VH: EVQLLESGGGLVQPGGSLRLSCAVSGIDLSNYAINWVRQAPGKGLEWIGIIWASGTTFYATWAKGRFTISRDNSKNTVYLQMNSLRAEDTAVYYCARTVPGYSTAPYFDLWGQGTLVTVSS
VL: DIQMTQSPSSVSASVGDRVTITCQSSPAVWSNFLSWYQQKPGKAPKLLIYEASKLTSGVPSRFSGSGSGTDFTLTISSLQPEDFATYYCGGGYSSISDTTFGGGTKVEIK
notes: as for B1
B14: CA645 gL12gH5 Fab (Fab, V domains shown)
VH: EVQLLESGGGLVQPGGSLRLSCAVSGIDLSNYAINWVRQAPGKGLEWIGIIWASGTTFYATWAKGRFTISRDNSKNTVYLQMNSLRAEDTAVYYCARTVPGYSTAPYFDLWGQGTLVTVSS
VL: DIQMTQSPSSVSASVGDRVTITCQSSPDVWSNFLSWYQQKPGKAPKLLIYEASKLTSGVPSRFSGSGSGTDFTLTISSLQPEDFATYYCGGGYSSISDTTFGGGTKVEIK
notes: as for B1
B15: CA645 gL13gH5 Fab (Fab, V domains shown)
VH: EVQLLESGGGLVQPGGSLRLSCAVSGIDLSNYAINWVRQAPGKGLEWIGIIWASGTTFYATWAKGRFTISRDNSKNTVYLQMNSLRAEDTAVYYCARTVPGYSTAPYFDLWGQGTLVTVSS
VL: DIQMTQSPSSVSASVGDRVTITCQSSPIVWSNFLSWYQQKPGKAPKLLIYEASKLTSGVPSRFSGSGSGTDFTLTISSLQPEDFATYYCGGGYSSISDTTFGGGTKVEIK
notes: as for B1
B16: CA645 gL14gH5 Fab (Fab, V domains shown)
VH: EVQLLESGGGLVQPGGSLRLSCAVSGIDLSNYAINWVRQAPGKGLEWIGIIWASGTTFYATWAKGRFTISRDNSKNTVYLQMNSLRAEDTAVYYCARTVPGYSTAPYFDLWGQGTLVTVSS
VL: DIQMTQSPSSVSASVGDRVTITCQSSPLVWSNFLSWYQQKPGKAPKLLIYEASKLTSGVPSRFSGSGSGTDFTLTISSLQPEDFATYYCGGGYSSISDTTFGGGTKVEIK
notes: as for B1
B17: CA645 gL27gH5 Fab (Fab, V domains shown)
VH: EVQLLESGGGLVQPGGSLRLSCAVSGIDLSNYAINWVRQAPGKGLEWIGIIWASGTTFYATWAKGRFTISRDNSKNTVYLQMNSLRAEDTAVYYCARTVPGYSTAPYFDLWGQGTLVTVSS
VL: DIQMTQSPSSVSASVGDRVTITCQSSPSVWSNYLSWYQQKPGKAPKLLIYEASKLTSGVPSRFSGSGSGTDFTLTISSLQPEDFATYYCGGGYSSISDTTFGGGTKVEIK
notes: as for B1
B18: CA645 gL34gH5 Fab (Fab, V domains shown)
VH: EVQLLESGGGLVQPGGSLRLSCAVSGIDLSNYAINWVRQAPGKGLEWIGIIWASGTTFYATWAKGRFTISRDNSKNTVYLQMNSLRAEDTAVYYCARTVPGYSTAPYFDLWGQGTLVTVSS
VL: DIQMTQSPSSVSASVGDRVTITCQSSPSVWSNFLSWYQQKPGKAPKLLIYEASKLTSGVPSRFSGSGSGTDFTLTISSLQPEDFATYYCGGGYTSISDTTFGGGTKVEIK
notes: as for B1
B19: CA645 gL35gH5 Fab (Fab, V domains shown)
VH: EVQLLESGGGLVQPGGSLRLSCAVSGIDLSNYAINWVRQAPGKGLEWIGIIWASGTTFYATWAKGRFTISRDNSKNTVYLQMNSLRAEDTAVYYCARTVPGYSTAPYFDLWGQGTLVTVSS
VL: DIQMTQSPSSVSASVGDRVTITCQSSPSVWSNFLSWYQQKPGKAPKLLIYEASKLTSGVPSRFSGSGSGTDFTLTISSLQPEDFATYYCGGGYVSISDTTFGGGTKVEIK
notes: as for B1

molecular target: T1, human serum albumin (human, UniProt P02768 25-609); assay: SPR, Fab captured; albumin taken as HSA;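 further: antibody held on a capture surface, albumin injected for 3 min association then dissociation followed, signals corrected using a blank reference flow cell and buffer-only injections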
T1 construct: mature; Bought purified serum albumin; also called HSA; Human albumin
Description: Each assay cycle consisted of firstly capturing the antibody sample using a 1 min injection, before an association phase consisting of a 3 min injection of albumin, after which dissociation was monitored. After each cycle, the capture surface was regenerated with two 1 min injections of 40 mM HCl followed by 30 s of 5 mM NaOH. The flow rates used were 10 μl/min for capture, 30 μl/min for both the association and dissociation phases, and 10 μl/min for regeneration. A blank flow-cell was used for reference subtraction and buffer-blank injections were included to subtract instrument noise and drift.

Question: Which results are given for B1?
Answer: Kd: 1.73 nM; koff: 8.4e-05 s⁻¹; kon: 48300 M⁻¹ s⁻¹

Question: What does the source list for B2?
Answer: Kd: 10.6 nM; koff: 0.000515 s⁻¹; kon: 48500 M⁻¹ s⁻¹

Question: What does the source list for B3?
Answer: Kd: 7.97 nM; koff: 0.00038 s⁻¹; kon: 47700 M⁻¹ s⁻¹

Question: Which Kd does the source give for B4 here?
Answer: 23.2 nM

Question: What about the koff of the same binder?
Answer: 0.00102 s⁻¹

Question: What about the kon of the same binder?
Answer: 43800 M⁻¹ s⁻¹

Question: Which Kd does the source give for B5 here?
Answer: 12.2 nM

Question: What about the koff of the same binder?
Answer: 0.000581 s⁻¹

Question: What about the kon of the same binder?
Answer: 47500 M⁻¹ s⁻¹

Question: B6 was tested. Which Kd did it give?
Answer: 14 nM

Question: What about the koff of the same binder?
Answer: 0.00075 s⁻¹

Question: And the kon?
Answer: 53500 M⁻¹ s⁻¹

Question: B7 was tested. Which Kd did it give?
Answer: 6.4 nM

Question: And the koff?
Answer: 0.000356 s⁻¹

Question: What about the kon of the same binder?
Answer: 55600 M⁻¹ s⁻¹

Question: How did the Kd turn out when B8 was run?
Answer: 6.54 nM

Question: What about the koff of the same binder?
Answer: 0.000351 s⁻¹

Question: And the kon?
Answer: 53700 M⁻¹ s⁻¹

Question: For B9, which Kd is on record?
Answer: 4.17 nM

Question: And the koff?
Answer: 0.000222 s⁻¹

Question: And the kon?
Answer: 53100 M⁻¹ s⁻¹

Question: B10 was tested. Which Kd did it give?
Answer: 7.39 nM

Question: And the koff?
Answer: 0.000391 s⁻¹

Question: What about the kon of the same binder?
Answer: 52900 M⁻¹ s⁻¹

Question: Which results are given for B11?
Answer: Kd: 4.22 nM; koff: 0.000226 s⁻¹; kon: 53500 M⁻¹ s⁻¹

Question: How did the Kd turn out when B12 was run?
Answer: 8.25 nM

Question: What about the koff of the same binder?
Answer: 0.000444 s⁻¹

Question: And the kon?
Answer: 53800 M⁻¹ s⁻¹

Question: For B13, which Kd is on record?
Answer: 1.03 nM

Question: And the koff?
Answer: 0.000172 s⁻¹

Question: What about the kon of the same binder?
Answer: 138000 M⁻¹ s⁻¹

Question: With B14 as the binder, how does the Kd read?
Answer: 1.88 nM

Question: And the koff?
Answer: 0.000104 s⁻¹

Question: What about the kon of the same binder?
Answer: 55400 M⁻¹ s⁻¹

Question: With B15 as the binder, how does the Kd read?
Answer: 1.88 nM

Question: And the koff?
Answer: 0.000108 s⁻¹

Question: What about the kon of the same binder?
Answer: 57600 M⁻¹ s⁻¹

Question: Which results are given for B16?
Answer: Kd: 1.51 nM; koff: 8.7e-05 s⁻¹; kon: 57700 M⁻¹ s⁻¹

Question: Which results are given for B17?
Answer: Kd: 9.44 nM; koff: 0.000586 s⁻¹; kon: 62100 M⁻¹ s⁻¹

Question: B18 was tested. Which Kd did it give?
Answer: 3.41 nM

Question: What about the koff of the same binder?
Answer: 0.00019 s⁻¹

Question: And the kon?
Answer: 55800 M⁻¹ s⁻¹

Question: Which results are given for B19?
Answer: Kd: 5.57 nM; koff: 0.00029 s⁻¹; kon: 52100 M⁻¹ s⁻¹
